From paper PMC4122463, “Application of Two Newly Identified and Characterized Feruloyl Esterases from Streptomyces sp. in the Enzymatic Production of Ferulic Acid from Agricultural Biomass” (PLoS ONE, 2014)

Key:
Type in all cases: biochemical, Streptomyces cinnamoneus
purified protein = substrate: CCCC(=O)Oc1ccc([N+](=O)[O-])cc1; experiment: purified protein; settings: general esterase assay
[1] = substrate: COC(=O)/C=C/c1cc(OC)c(O)c(OC)c1; experiment: HPLC of released phenolic acid; settings: 50 mM Tris maleate, 40 °C, 30 min
Source text: (§1) HPLC of released phenolic acid on R43

[2] = substrate: COC(=O)/C=C/c1ccc(O)c(OC)c1; experiment: HPLC of released phenolic acid; settings: 50 mM Tris maleate, 40 °C, 30 min
Source text: as §1

[3] = substrate: COC(=O)/C=C/c1ccc(O)cc1; experiment: HPLC of released phenolic acid; settings: 50 mM Tris maleate, 40 °C, 30 min
Source text: as §1

[4] = substrate: CCOC(=O)/C=C/c1ccc(O)c(OC)c1; experiment: HPLC of released phenolic acid; settings: 50 mM Tris maleate, 40 °C, 30 min
Source text: as §1

[5] = substrate: COC(=O)/C=C/c1ccc(O)c(O)c1; experiment: HPLC of released phenolic acid; settings: 50 mM Tris maleate, 40 °C, 30 min
Source text: as §1

[6] = substrate: COC(=O)/C=C/c1cc(OC)c(O)c(OC)c1; experiment: HPLC of released phenolic acid; settings: 50 mM Tris maleate, 50 °C, 30 min
Source text: (§2) HPLC of released phenolic acid on R18

[7] = substrate: COC(=O)/C=C/c1ccc(O)c(OC)c1; experiment: HPLC of released phenolic acid; settings: 50 mM Tris maleate, 50 °C, 30 min
Source text: as §2

[8] = substrate: COC(=O)/C=C/c1ccc(O)cc1; experiment: HPLC of released phenolic acid; settings: 50 mM Tris maleate, 50 °C, 30 min
Source text: as §2

[9] = substrate: CCOC(=O)/C=C/c1ccc(O)c(OC)c1; experiment: HPLC of released phenolic acid; settings: 50 mM Tris maleate, 50 °C, 30 min
Source text: as §2

[10] = substrate: COC(=O)/C=C/c1ccc(O)c(O)c1; experiment: HPLC of released phenolic acid; settings: 50 mM Tris maleate, 50 °C, 30 min
Source text: as §2

B1: R43 (Streptomyces cinnamoneus) (protein)
chain: MEIRTAQGIVRGELTAGGLAVFRGVPYARPPVGNLRFAAPQPPLPWDGVRDALAFGPPPPQSGPARVPGDPAGTDWLTLNVWTPDPGGSGLPVLVWIPGGAYVSGAAGDPLYDAALLAGQGGLVVVTLNYRLGAEGFAHLPGVPDNRGLLDQLAALDWVRQNIARFGGNPDRVTLCGQSAGAGSIATLLAAPRAAGLFRRAITQSVPGLYATCALAADVTADLAARLGTTPTTAGLAAVSPQRLADAIDPLMEELPARIDRWGRLARSGVPFLPVVDGDVVPDVPWRSLRDGRASETDLLTGHTRDEFRPFLMLSGHPEKITDEDATAALRALAPAPDGERAYRAAHPDASPAALFELLYSDVLFRMPSLHLADAHSAGGGTAHLYELCLSAPALGGALGAAHGLDVSLLFGTYSAPAARLFYGEEPPPEDVLALGDDIRRSWASFAAHGDPGWPAYRVTDGRLTGLLDTGTGAGPYPEDASRRIWEGHGVEPFDLV
notes: full length, no signal peptide, secreted from Streptomyces expression host (pTONA vector); 498 aa; about 52 kDa; N-terminus at residue 1; monomer; powdered enzyme
Question: What does the source list for B1?
Answer: Km (purified protein): 0.17 ± 0.05 mM; Vmax (purified protein): 0.00056 µmol/min/mg; Km [1]: 0.54 ± 0.07 mM; Vmax [1]: 0.00104 µmol/min/mg; Km [2]: 4.41 ± 0.36 mM; Vmax [2]: 0.042 µmol/min/mg; Km [3]: 3.00 ± 0.26 mM; Vmax [3]: 0.00817 µmol/min/mg; Km [4]: 1.96 ± 0.14 mM; Vmax [4]: 0.0153 µmol/min/mg; Km [5]: 2.61 ± 0.25 mM; Vmax [5]: 0.0021 µmol/min/mg

B2: R18 (Streptomyces cinnamoneus) (protein)
chain: ATAGQEVPAPATRIPLGTKTLHLVDASRQDPWKPSAGNRELMVTLWYPSLPSREPAAPYVSKPLSRAVLGNDVLAGVRTHAVAGARPAPVPRPLVVLSPGFGMSRITLTALGEDLASRGYAVAAVDHTYEAPVEFPGGRIEKCTLCDDSRMDPGAVVRNRAKDLRFVLDRLTGPGSELRVDARRIGVAGHSIGGASAVEVMREDRRVDAAINLDGNFFTEPPAEGLNKPVLLLGARRSGLPEPQENWERAWKQLTGWKRWLDVPAGGHMTFTDVPWIVDRFGMPGQIPPEQVEGQLGTVSAARATAVTRNYVAAFFDRHLRGRPSPLLDRPSSAHPEVTFMK
notes: secreted from Streptomyces expression host (pTONA vector), signal peptide removed; mature N-terminus at residue 42 of 383; about 38 kDa; monomer; powdered enzyme
Question: For B2, which Km [6] is on record?
Answer: 9.39 ± 1.43 mM

Question: What about the Vmax [6] of the same protein?
Answer: 0.0367 µmol/min/mg

Question: What about the Km [7] of the same protein?
Answer: 4.99 ± 1.72 mM

Question: What about the Vmax [7] of the same protein?
Answer: 0.0523 µmol/min/mg

Question: And the Km [8]?
Answer: 4.31 ± 0.26 mM

Question: What about the Vmax [8] of the same protein?
Answer: 0.0262 µmol/min/mg

Question: What about the Km [9] of the same protein?
Answer: 4.28 ± 0.36 mM

Question: What about the Vmax [9] of the same protein?
Answer: 0.0406 µmol/min/mg

Question: And the Km [10]?
Answer: 3.31 ± 0.31 mM

Question: And the Vmax [10]?
Answer: 0.00752 µmol/min/mg
